Experimental data: the Human Domainome abundance scans (Beltran et al. 2025)

B1: E3 ubiquitin-protein ligase NEDD4-like, residues 539 to 589; numbered along this chain, Q96PU5 (parent)
chain: KTSLNPNDLGPLPPGWEERIHLDGRTFYIDHNSKITQWEDPRLQNPAITGP

Variants of: B1
Assay: abundance fitness (aPCA) (normalised: wild type 0, dead -1); higher = more abundant; growth selection in yeast, the domain comes from the species named
Conditions: Homo sapiens

Abundance fitness, by site and new letter:
D30: R -0.553 | S -0.32 | T -0.716 | V -1.03 | Y -0.358
H31: A -0.174 | C -0.149 | D -0.601 | E -0.243 | F -0.479 | G -0.243 | I -0.017 | K 0.11 | L -0.04 | M 0 | Q -0.224 | R -0.156 | S -0.08 | T 0.065 | V -0.07 | W -0.428 | Y -0.414
N32: A -0.339 | C -0.312 | D -0.118 | E -0.03 | F -0.39 | H -0.286 | I 0.074 | K -0.011 | L -0.181 | M -0.164 | P -0.594 | Q -0.18 | R -0.044 | S -0.086 | T -0.035 | V -0.064 | W -0.395 | Y -0.24
S33: A -0.061 | C -0.153 | D -0.267 | E -0.067 | G -0.344 | H 0.098 | I -0.42 | K 0.05 | L -0.188 | M -0.279 | N -0.001 | Q -0.188 | R 0.056 | T 0.066 | V -0.385 | W -0.802
K34: A -0.176 | C -0.223 | D -0.063 | E -0.251 | F -0.513 | G -0.022 | H -0.087 | I -0.875 | L -0.284 | M -0.105 | N -0.053 | P -0.857 | Q 0.076 | R -0.119 | S -0.197 | T -0.218 | V -0.58 | W -0.547 | Y -0.39
I35: A 0.008 | C 0.002 | D -0.128 | F -0.16 | G -0.301 | K 0.065 | L -0.035 | M -0.239 | N -0.042 | Q 0.029 | R 0.048 | S -0.079 | T 0.04 | V -0.163 | Y -0.291
T36: A -0.341 | C 0.086 | E -0.119 | F -0.261 | G -0.224 | H 0.032 | L -0.558 | M -0.208 | N -0.469 | P -0.608 | Q -0.336 | R -0.291 | V -0.263 | W -0.491
Q37: A -0.443 | C -0.207 | D -0.521 | E -0.742 | F -0.358 | G -0.723 | H 0.068 | K -0.357 | L -0.703 | M -0.231 | N -0.511 | S -0.014 | T 0.21 | V -0.397 | W -0.564 | Y -0.33
W38: A -0.014 | D 0.002 | E 0.068 | F 0.066 | G -0.249 | H -0.121 | I -0.162 | K -0.029 | L -0.173 | M -0.127 | N -0.059 | P -0.223 | Q -0.07 | T 0.058 | V -0.146 | Y -0.041
E39: A -0.15 | C -0.194 | D -0.077 | F -0.45 | G -0.183 | H -0.153 | I -0.251 | K -0.216 | L -0.313 | M -0.245 | N -0.009 | Q -0.362 | R -0.208 | S -0.1 | T -0.105 | V -0.233 | W -0.456 | Y -0.412
D40: A -0.528 | C -0.639 | E -0.587 | F -0.566 | G -0.731 | H -0.16 | I -0.574 | K -0.585 | L -0.654 | M -0.639 | P -0.401 | Q -0.878 | S -0.492 | T -0.919 | V -0.706 | Y -0.53
P41: A -0.947 | C -0.672 | D -0.98 | E -0.718 | F -1.1 | G -0.742 | H -1.08 | I -1.28 | K -0.868 | M -0.367 | N -0.86 | Q -1.14 | R -0.758 | S -0.827 | T -0.875 | V -0.848 | W -1.11 | Y -1.15
R42: C -0.847 | D -1.15 | E -0.752 | F -1.09 | G -0.656 | H -0.67 | K -0.352 | L -0.787 | M -0.718 | N -0.687 | P -0.474 | S -0.661 | T -0.71 | W -1.18 | Y -1.05
L43: A 0.007 | C -0.11 | D -0.139 | E -0.042 | F -0.104 | G -0.086 | H -0.131 | I -0.256 | M -0.153 | N -0.183 | P -0.089 | Q -0.144 | R -0.116 | T -0.069 | V -0.088 | W -0.333 | Y -0.192
Q44: A -0.028 | C -0.15 | D 0.028 | E 0.074 | F -0.218 | G -0.022 | H -0.155 | I -0.016 | K 0.11 | M -0.049 | N -0.091 | P -0.135 | R -0.039 | S -0.054 | T -0.078 | V -0.114 | W -0.27 | Y -0.336
N45: A -0.028 | C -0.103 | D -0.213 | E -0.046 | F -0.634 | G -0.045 | H -0.068 | I -0.099 | K 0.029 | L -0.094 | M -0.163 | Q -0.102 | R 0.003 | S -0.011 | T -0.007 | V -0.106 | W -0.331 | Y -0.157
P46: A -0.06 | C -0.098 | D -0.028 | E -0.39 | F -0.228 | G 0.01 | H -0.105 | I -0.171 | K 0.028 | L 0.161 | M 0.084 | N -0.263 | Q -0.27 | S -0.048 | T -0.051 | V -0.014 | W -0.249 | Y -0.317
A47: C -0.049 | D 0.218 | E -0.002 | F -0.204 | G 0.01 | H 0.235 | I -0.167 | K -0.204 | L -0.083 | M -0.212 | N 0.011 | P 0.008 | Q 0.193 | R 0.004 | S -0.04 | T -0.056 | V -0.042 | W -0.296
I48: F -0.306 | G 0.025 | L -0.123 | M -0.176 | Q 1.1 | T 0.051 | V 0.132
T49: A -0.121 | D -0.086 | E -0.144 | F -0.165 | G -0.045 | H -0.089 | I -0.226 | K -0.267 | L -0.104 | M -0.091 | N -0.313 | P -0.135 | Q -0.199 | R -0.042 | S -0.077 | V -0.198 | W -0.213 | Y -0.286
G50: A 0.012 | C -0.329 | D 0.029 | E 0.223 | H -0.555 | K 0.305 | L 0.118 | M -0.284 | P -0.213 | Q -0.351 | R -0.18 | S -0.153 | T 0.166 | V -0.064 | W -0.143 | Y -0.202
P51: C -0.232
